Measured values as given in patent US20150299296A1 (Chugai, published 2015).
Positions count from the first letter of the chain named.

T1: human FcγRIIa type H extracellular domain with C-terminal His tag (human, UniProt P12318 34-217)
T1 construct: extracellular domain; also called FcgRIIaH; FcγRIIa H
T1 sequence (looked up): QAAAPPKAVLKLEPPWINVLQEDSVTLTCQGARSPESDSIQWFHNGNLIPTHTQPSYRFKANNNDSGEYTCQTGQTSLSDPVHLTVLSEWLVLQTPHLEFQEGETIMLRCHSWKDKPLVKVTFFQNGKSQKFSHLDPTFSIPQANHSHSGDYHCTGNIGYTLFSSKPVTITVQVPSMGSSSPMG

T2: human FcγRIIb extracellular domain with C-terminal His tag (human, UniProt P31994 43-217)
T2 construct: extracellular domain; For crystals it was expressed with kifunensine and trimmed with Endo F1; also called FcgRIIb; FcγRIIb extracellular region
T2 sequence (looked up): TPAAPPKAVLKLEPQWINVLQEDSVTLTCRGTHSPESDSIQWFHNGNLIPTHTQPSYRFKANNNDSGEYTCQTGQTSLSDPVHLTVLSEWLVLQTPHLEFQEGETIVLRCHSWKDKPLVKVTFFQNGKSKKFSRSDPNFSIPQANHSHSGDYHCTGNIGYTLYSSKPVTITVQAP

B1: IL6R-2B253/IL6R-L (antibody, human IgG1, kappa, name in EU numbering)
heavy: QVQLQESGPGLVKPSETLSLTCAVSGHSISHDHAWSWVRQPPGEGLEWIGFISYSGITNYNPSLQGRVTISRDNSKNTLYLQMNSLRAEDTAVYYCARSLARTTAMDYWGEGTLVTVSSASTKGPSVFPLAPSSKSTSGGTAALGCLVKDYFPEPVTVSWNSGALTSGVHTFPAVLQSSGLYSLSSVVTVPSSSLGTQTYICNVNHKPSNTKVDKKVEPKSCDKTHTCPPCPAPDLLGGDSVFLFPPKPKDTLMISRTPEVTCVVVDVSHEDPEVKFNWYVDGVEVHNAKTKPREEQYNSTYRVVSVLTVLHQDWLNGKEYKCKMSNKALPAPIEKTISKAKGQPREPQVYTLPPSRDELTKNQVSLTCLVKGFYPSDIAVEWESNGQPENNYKTTPPVLDSDGSFFLYSKLTVDKSRWQQGNVFSCSVMHEALHNHYTQESLSLSP
light: not shown
B2: IL6R-BP193/IL6R-L (antibody, human IgG1, kappa, name in EU numbering)
heavy: B1 heavy with H270D, P273G, M325V, A332K
light: not shown
B3: IL6R-BP086/IL6R-L (antibody, human IgG1, kappa, name in EU numbering)
heavy: B1 heavy with D235E, M325V, K328A, A332K
light: not shown
B4: IL6R-BP204/IL6R-L (antibody, human IgG1, kappa, name in EU numbering)
heavy: B1 heavy with P273G, M325V, K328A, A332R
light: not shown
B5: IL6R-BP089/IL6R-L (antibody, human IgG1, kappa, name in EU numbering)
heavy: B1 heavy with D235E, L236Y, M325V, K328A, A332K
light: not shown
B6: IL6R-BP195/IL6R-L (antibody, human IgG1, kappa, name in EU numbering)
heavy: B1 heavy with L236Y, G239D, H270D, P273G, Y298D, M325V, K328A, A332K
light: not shown
notes: Same printed alterations as IL6R-BP197
B7: IL6R-BP129/IL6R-L (antibody, human IgG1, kappa, name in EU numbering)
heavy: B1 heavy with Y298D, M325V, A332K
light: not shown
B8: IL6R-BP131/IL6R-L (antibody, human IgG1, kappa, name in EU numbering)
heavy: B1 heavy with G239D, M325V, A332K
light: not shown
B9: IL6R-BP147/IL6R-L (antibody, human IgG1, kappa, name in EU numbering)
heavy: B1 heavy with D235E, L236Y, G239D, M325V, K328A, A332K
light: not shown
B10: IL6R-BP087/IL6R-L (antibody, human IgG1, kappa, name in EU numbering)
heavy: B1 heavy with D235E, L236Y, M325V, A332K
light: not shown
B11: IL6R-BP205/IL6R-L (antibody, human IgG1, kappa, name in EU numbering)
heavy: B1 heavy with P273G, Y298D, M325V, A332R
light: not shown
B12: IL6R-BP151/IL6R-L (antibody, human IgG1, kappa, name in EU numbering)
heavy: B1 heavy with L236Y, G239D, M325V, K328A, A332R
light: not shown
B13: IL6R-BP202/IL6R-L (antibody, human IgG1, kappa, name in EU numbering)
heavy: B1 heavy with D235E, G239D, P273G, M325V, K328A, A332R
light: not shown
B14: IL6R-BP182/IL6R-L (antibody, human IgG1, kappa, name in EU numbering)
heavy: B1 heavy with P273G, Y298D, M325V, A332K
light: not shown
B15: IL6R-BP144/IL6R-L (antibody, human IgG1, kappa, name in EU numbering)
heavy: B1 heavy with D235E, G239D, M325V, K328A
light: not shown
B16: IL6R-BP143/IL6R-L (antibody, human IgG1, kappa, name in EU numbering)
heavy: B1 heavy with D235E, L236Y, M325V, K328A
light: not shown
B17: IL6R-BP191/IL6R-L (antibody, human IgG1, kappa, name in EU numbering)
heavy: B1 heavy with H270D, P273G, M325V, K328A, A332K
light: not shown
B18: IL6R-BP148/IL6R-L (antibody, human IgG1, kappa, name in EU numbering)
heavy: B1 heavy with L236Y, G239D, M325V, K328A, A332K
light: not shown
B19: IL6R-BP085/IL6R-L (antibody, human IgG1, kappa, name in EU numbering)
heavy: B1 heavy with D235E, G239D, M325V, A332K
light: not shown
B20: IL6R-BP212/IL6R-L (antibody, human IgG1, kappa, name in EU numbering)
heavy: B1 heavy with H270D, P273G, Y298D, M325V, A332R
light: not shown
B21: IL6R-BP084/IL6R-L (antibody, human IgG1, kappa, name in EU numbering)
heavy: B1 heavy with D235E, A332K
light: not shown
B22: IL6R-BP145/IL6R-L (antibody, human IgG1, kappa, name in EU numbering)
heavy: B1 heavy with D235E, L236Y, G239D, M325V
light: not shown
B23: IL6R-BP133/IL6R-L (antibody, human IgG1, kappa, name in EU numbering)
heavy: B1 heavy with L236Y, M325V, A332K
light: not shown
B24: IL6R-BP210/IL6R-L (antibody, human IgG1, kappa, name in EU numbering)
heavy: B1 heavy with D235E, G239D, H270D, P273G, M325V, A332R
light: not shown
B25: IL6R-BP082/IL6R-L (antibody, human IgG1, kappa, name in EU numbering)
heavy: B1 heavy with M325V, A332K
light: not shown
B26: IL6R-BP088/IL6R-L (antibody, human IgG1, kappa, name in EU numbering)
heavy: B1 heavy with D235E, G239D, M325V, K328A, A332K
light: not shown
B27: IL6R-BP149/IL6R-L (antibody, human IgG1, kappa, name in EU numbering)
heavy: B1 heavy with L236Y, G239D, Y298D, M325V, K328A, A332K
light: not shown
notes: Same printed alterations as IL6R-BP214
B28: IL6R-BP190/IL6R-L (antibody, human IgG1, kappa, name in EU numbering)
heavy: B1 heavy with D235E, G239D, H270D, P273G, M325V, A332K
light: not shown
B29: IL6R-2B261/IL6R-L (antibody, human IgG1, kappa, name in EU numbering)
heavy: B1 heavy with Y298D, M325V
light: not shown
B30: IL6R-BP083/IL6R-L (antibody, human IgG1, kappa, name in EU numbering)
heavy: B1 heavy with D235E, Y298D, M325V, A332K
light: not shown
B31: IL6R-BP211/IL6R-L (antibody, human IgG1, kappa, name in EU numbering)
heavy: B1 heavy with H270D, P273G, M325V, K328A, A332R
light: not shown
B32: IL6R-BP181/IL6R-L (antibody, human IgG1, kappa, name in EU numbering)
heavy: B1 heavy with P273G, M325V, K328A, A332K
light: not shown

target: T1, human FcγRIIa type H extracellular …; assay: SPR; IL6R-BF648/IL6R-L=100
Procedure: (§1) IL6R-L was utilized as the common antibody L chain for all of the antibodies, the antibodies were expressed and purified according to the method of Reference Example 1, and binding to each of the FcγRs (FcγRIa, FcγRIIa type H, FcγRIIa type R, FcγRIIb, and FcγRIIIa type V) was comprehensively evaluated by the method of Reference Example 2.
(§2) Relative binding activities were calculated for the results of analyzing interactions with the respective FcγRs according to the following method.

Row | Binder | relative binding activity
1 | B1 | 207
2 | B2 | 154
3 | B3 | 116
4 | B4 | 137
5 | B5 | 186
6 | B6 | 344
7 | B7 | 98
8 | B8 | 253
9 | B9 | 582
10 | B10 | 179
11 | B11 | 108
12 | B12 | 621
13 | B13 | 285
14 | B14 | 139
15 | B15 | 108
16 | B16 | 143
17 | B17 | 145
18 | B18 | 462
19 | B19 | 158
20 | B20 | 135
21 | B21 | 162
22 | B22 | 224
23 | B23 | 151
24 | B24 | 279
25 | B25 | 106
26 | B26 | 166
27 | B27 | 401
28 | B28 | 224

target: T3, human FcγRIa extracellular domain with C-terminal His tag (human, UniProt P12314 16-292); assay: SPR; IL6R-BF648/IL6R-L=100
T3 construct: Whole entry named; also called FcgRIa; FcgIa
Procedure: as §1, §2

T3 sequence (P12314 16-292): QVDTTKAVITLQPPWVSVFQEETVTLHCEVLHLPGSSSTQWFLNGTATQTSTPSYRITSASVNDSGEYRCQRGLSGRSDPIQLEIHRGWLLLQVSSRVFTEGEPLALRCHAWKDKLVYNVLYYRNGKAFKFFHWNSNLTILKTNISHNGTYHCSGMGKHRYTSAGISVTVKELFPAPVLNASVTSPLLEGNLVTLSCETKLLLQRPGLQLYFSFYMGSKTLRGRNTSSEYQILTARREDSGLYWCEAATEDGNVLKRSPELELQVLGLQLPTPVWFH

Row | Binder | relative binding activity
29 | B1 | 155
30 | B29 | 100
31 | B2 | 113
32 | B3 | 72
33 | B4 | 110
34 | B5 | 43
35 | B6 | 68
36 | B7 | 68
37 | B8 | 33
38 | B9 | 24
39 | B10 | 33
40 | B11 | 97
41 | B30 | 50
42 | B12 | 39
43 | B13 | 43
44 | B14 | 95

Row | Binder | relative binding activity
45 | B15 | 64
46 | B16 | 86
47 | B17 | 125
48 | B31 | 128
49 | B18 | 33
50 | B19 | 19
51 | B20 | 117
52 | B21 | 109
53 | B22 | 41
54 | B23 | 41
55 | B24 | 57
56 | B25 | 74
57 | B26 | 25
58 | B27 | 29
59 | B28 | 50

target: T4, human FcγRIIIa type V extracellular domain with C-terminal His tag (human, UniProt P08637 17-208); assay: SPR; IL6R-BF648/IL6R-L=100
T4 construct: extracellular domain; also called FcgRIIIaV; FcγRIIIaV
Procedure: as §1, §2

T4 sequence (P08637 17-208 F176V): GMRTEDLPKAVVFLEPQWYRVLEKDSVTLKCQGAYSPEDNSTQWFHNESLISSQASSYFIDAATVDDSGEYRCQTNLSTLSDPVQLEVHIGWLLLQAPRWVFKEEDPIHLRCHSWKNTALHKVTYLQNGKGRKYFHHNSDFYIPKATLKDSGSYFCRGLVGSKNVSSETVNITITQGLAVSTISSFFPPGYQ

Row | Binder | relative binding activity
60 | B1 | 126
61 | B29 | 87
62 | B3 | 123
63 | B32 | 122
64 | B5 | 136
65 | B6 | 221
66 | B7 | 95
67 | B8 | 118
68 | B9 | 209
69 | B10 | 158
70 | B30 | 107
71 | B12 | 221
72 | B15 | 128
73 | B16 | 114
74 | B17 | 142
75 | B31 | 87
76 | B18 | 227
77 | B19 | 104
78 | B21 | 106
79 | B22 | 153
80 | B23 | 114
81 | B25 | 87
82 | B26 | 122
83 | B27 | 186
84 | B28 | 155

target: T2, human FcγRIIb extracellular domain with …; assay: SPR; IL6R-BF648/IL6R-L=100
Procedure: as §1, §2

Row | Binder | relative binding activity
85 | B1 | 156
86 | B29 | 115
87 | B2 | 173
88 | B3 | 137
89 | B4 | 165
90 | B5 | 147
91 | B7 | 138
92 | B9 | 177
93 | B10 | 137
94 | B11 | 167
95 | B30 | 122
96 | B13 | 185
97 | B14 | 173
98 | B15 | 121
99 | B16 | 133
100 | B31 | 165
101 | B18 | 176
102 | B19 | 152
103 | B20 | 173
104 | B21 | 141
105 | B22 | 152
106 | B23 | 137
107 | B24 | 187
108 | B25 | 136
109 | B26 | 161
110 | B27 | 173
